Values of other authors as cited in patent US8791066B2 (Novo Nordisk A/S, priority 2004, dated 2014).

GLP-1(7-36)amide
time until peak concentrations return to baseline / cleared from the circulation (administered subcutaneously): ≤ 90 min
time to complete clearance (in vivo): 12 to 13 min
